Measurements as given in patent US12168677B2, “Proteins for the treatment of epithelial barrier function disorders” (Genevive, Inc., priority 2017, dated 2024).

Experiments:
[1] = test system: TNF-α; assay: TNF-α production by monocytes in co-culture TEER assay (Luminex); type: cell-based, human; conditions: pre-incubated 6 hours prior to HK E. coli; basolateral supernatant
Method: Production of the cytokines TNF-α, IL-23, and IL-10 by monocytes was measured in the tissue culture supernatant from the basolateral chamber of the co-culture TEER assay performed in Example 1B. Following TEER readings, the supernatants were centrifuged at 10,000 g for 5 minutes at 4° C. to remove cell debris. Luminex analysis was performed according to the manufacturer's instructions (Magpix instrument and xPonent software version 4.2; Luminex Corporation (Austin, TX)). Luminex analysis was performed to determine the […] concentration of TNF-α and IL-23 produced by monocytes. Luminex analysis utilizes a bead-based system for quantification of multiple cytokines from a single sample. Like an ELISA, Luminex beads are coated with a capture antibody, and incubation with samples allows the target to bind to the capture antibody. Beads are washed and incubated with a fluorescently labeled detection antibody for quantification of bound target. Cytometric analysis is used to differentiate bead populations, which are loaded with differential fluorescent dyes, and to quantify cytokine levels by measuring detection antibody signal. TNF-α, IL-23, and IL-10 production in untreated cells and cells pre-incubated with SG-15 for 6 hours prior to HK E. coli treatment was normalized to pg/ml concentrations elicited by HK E. coli only, which was set to 1.0. […] The graphs in FIGS. 2A, 2B and 2C each represent data pooled from an individual experiment (n=3).

[2] = test system: DSS treated mice; assay: DSS model of inflammatory bowel disease: 4KDa-FITC dextran translocation across the epithelial barrier; type: in vivo, C57BL/6 mice; conditions: 50 nmoles/kg i.p. b.i.d., 2.5% DSS 6 days; for 4KDa-FITC dextran in serum compared to DSS mice treated with vehicle: day 6
Method: Specifically, the mice in Example 1E were treated with dextran sodium sulfate (DSS), a chemical known to induce intestinal epithelial damage and thereby reduce intestinal barrier integrity and function. DSS mice are well-accepted models of colitis. In Example 1E, mice were treated with SG-15 protein approximately concurrent with (6 hours prior to) administration of DSS. The mice were then assessed for effects of SG-15 on clinically relevant markers of improved health. Eight-week old C57BL/6 mice were housed 5 animals were cage and given food and water ad libitum for 7 days. Following the 7-day acclimation period, treatments were initiated concurrently with addition of 2.5% DSS to the drinking water. […] The mice were treated with 2.5% dextran sodium sulfate (DSS) in their drinking water for 6 days. Treatments were continued with SG-15 or […]-GLP2 twice a day (b.i.d.) in the morning and evening (every 8 and 16 hr) with i.p. injections at 50 nmoles/kg. Fresh 2.5% DSS drinking water was prepared every 2 days. On day six, mice were fasted for four hours and then orally gavaged with 600 mg/kg 4 KDa dextran labeled with fluorescein isothiocyanate (FITC) [4KDa-FITC]. One hour after the 4KDa-FITC gavage mice were euthanized, blood was collected and FITC signal was measured in serum. […] Results are shown in FIG. 4, and are presented as mean±SEM. The graph in FIG. 4 represents data pooled from 2 individual experiments (n=20).

[3] = test system: DSS treated mice; assay: DSS model: colon weight to length ratio; type: in vivo, C57BL/6 mice; conditions: 2.5% DSS 6 days
Method: Eight-week old C57BL/6 mice were housed 5 animals were cage and given food and water ad libitum for 7 days. Following the 7-day acclimation period, treatments were initiated concurrently with addition of 2.5% DSS to the drinking water. […] The mice were treated with 2.5% dextran sodium sulfate (DSS) in their drinking water for 6 days. Treatments were continued with SG-15 or […]-GLP2 twice a day (b.i.d.) in the morning and evening (every 8 and 16 hr) with i.p. injections at 50 nmoles/kg. Fresh 2.5% DSS drinking water was prepared every 2 days. Colon length and weight were measured in mice included in the DSS model study described in Example 1E. […] Accordingly, the ratio of tissue weight to length can be used as a readout of DSS induced tissue damage. SG-15 administration to DSS treated mice (Example 1E) reduced the colon weight to length ratio elicited by DSS (DSS=3.9 mg/mm, DSS+SG-15=3.5 mg/mm; p=0.13). […] However, no difference was observed between treated with SG-15 as compared to treatment with […]GLP2. The graph in FIG. 9 represents data pooled from the 2 individual experiments (n=20).

[4] = test system: LPS binding protein (LBP); assay: DSS model: LPS binding protein in serum (ELISA); type: in vivo, C57BL/6 mice; conditions: 50 nmoles/kg i.p. b.i.d.; 2.5% DSS 6 days
Method: Eight-week old C57BL/6 mice were housed 5 animals were cage and given food and water ad libitum for 7 days. Following the 7-day acclimation period, treatments were initiated concurrently with addition of 2.5% DSS to the drinking water. […] The mice were treated with 2.5% dextran sodium sulfate (DSS) in their drinking water for 6 days. Treatments were continued with SG-15 or […]-GLP2 twice a day (b.i.d.) in the morning and evening (every 8 and 16 hr) with i.p. injections at 50 nmoles/kg. Fresh 2.5% DSS drinking water was prepared every 2 days. SG-15 was also assessed for its effects on the levels of LPS binding protein (LBP) in the blood of the DSS animal with and without SG-15 administration. LPS binding protein (LBP), which has been linked to clinical disease activity in subjects with inflammatory bowel disease, was also measured by ELISA in the serum of mice tested in the DSS model described in Example 1E. […] Results are shown in FIG. 5, and are presented as mean±SEM. The graph in FIG. 5 represents data pooled from the 2 individual experiments (n=20).

[5] = DSS+SG protein, 50 nmoles/kg i.p. b.i.d., unit not given

B1: SG-18: 267 amino acid protein (SEQ ID NO:19) encoded by the genome of Clostridium bartlettii sp. nov. (protein, listed as Clostridium bartlettii)
chain: EVDSSKEQATSKDEKQVVVATSVAITEILDRLGVEVSGVPQTSYELPESAKGATEIGSPMNPDMEIIKSLNPTDVICVDTLGSDFEKQFEENNINADFYNLSNVDGLKETIAALGEKFNKQDKANEILDEIKEVENKVNSNKKSDDKILVLFGAPGSVMVATDKSYIGNLVELAGGNNIFSNATSSFTQINLEEIIKLNPDKILVMTHAVPEAAKKSVEEELSKDLWKNVNAVKNNDITYLENGYFGMSANLQIVEAVEKLGDILYE
For B1, the “TNF-α production normalized to HK E. coli only (set to 1.0)” value (from here on “TNF-α production normalized”) [1] was 1.06, the “4KDa-FITC dextran translocation compared to positive control Gly2-GLP2” value [2] was “even lower than the positive control” and the “4KDa-FITC dextran in serum compared to DSS mice treated with vehicle” value [2] was “significant reduction in 4KDa-FITC dextran”. For the same molecule, the “Colon weight to length ratio” value [3, 5] was 3.3.

B2: SG-17: 327 amino acid protein (SEQ ID NO:13) encoded by the genome of Eubacterium eligens (protein, listed as Eubacterium eligens)
chain: CNSKIDVKYDYNVEDYVQLGQYENISVQVDKTSIENELIESKIKQDVEDNTTYTEVDRGAIASDQILVTYTATSSGASLSGLTNTDGKTMILGTDTLGLELDELDQALYGMTPGQTKILIVDIPEDYSSDLYKGTRVVFELTMQTVAQANVPMITNAYVKEAFGYDTVEEYRQSIKESLETDINSKVENKIQEDVLSSLQDTFKISSYPDSLMEETRSRLETSIGFYADFSNLSKDEYCQKQYGLSFDDFVKKSVVQQLIMEAIVKDRNMTMREYDYKGSLDDFAADNGYSNADTFVEKFGKDKIVKAMLVQKAQDYVIEHANISYK
For B2, the “TNF-α production normalized” value [1] was 0.73, the “4KDa-FITC dextran in serum compared to DSS mice treated with vehicle” value [2] was “not altered” and the “Impact on LBP concentration compared to control peptide Gly2-GLP2” value [4] was “greater impact on LBP concentration”. For the same molecule, the “LBP in serum compared to DSS mice treated with vehicle” value [4] was “significant reduction in LBP” and the “Colon weight to length ratio” value [3, 5] was 3.14.

B3: SG-16: 119 amino acid protein (SEQ ID NO:9) encoded by the genome of Eubacterium eligens (protein, listed as Eubacterium eligens)
chain: MTGCSGSKEPDNKTSVDYTVVENADLPEELKKLIESKKDKVMRLTYTTKDYTYVVAGYGTRETSGYSIKVNDVYTGDNALYIDLNLIGPAAGEAVNEVETYPVIVLKMERREESVVFKM
B3 was tested, and the “TNF-α production normalized” value [1] was 1.29, the “4KDa-FITC dextran in serum compared to DSS mice treated with vehicle” value [2] was “significant reduction in 4KDa-FITC dextran” and the “LBP in serum compared to DSS mice treated with vehicle” value [4] was “No change in LBP”. For the same molecule, the “Colon weight to length ratio” value [3, 5] was 4.1.

B4: SG-15: 400 amino acid protein (SEQ ID NO:1) encoded by the genome of Eubacterium eligens (protein, listed as Eubacterium eligens)
chain: EYTEIRTASELVEAAKSASGNYKLMTDIDMTGVEWTPWDFSGTFDGNGHSILNLSVKTVSKKTMKTYDGNRKEYKTYGAGFFGVLTGAKVTGLDIYGARIEITTTEPCFAAPIAGLADDSDISDCIIKDTYVSLTDSAKMWGTGGIAGFGSGNLDNITTDVTLVCVDTDAAVRDEQFMGGAYAAGFLNIRNCSITIDGYDSDHGYVHDGGLVGMYMVYPLELSKTYQGEVLNNKVKGMITFFEDNTDRRAYCQANMGEVMNWTYAYSGFTSDFKRNETYDYSVTLLPEMCSNPSYTDVVTEATASDFGYTTHTCSTCGYTYSDTYTIHEHKVDSYSVVKEAASTDKKDGIEAGTCSLCNQTVYREYAANVVTDDNTQATDNKASGTAVKKGMKESTAVFA
With B4 the “TNF-α production normalized” value [1] was 0.91, the “4KDa-FITC dextran in serum compared to DSS mice treated with vehicle” value [2] was “significant reduction in 4KDa-FITC dextran” and the “LBP in serum compared to DSS mice treated with vehicle” value [4] was “significant reduction in LBP”. For the same molecule, the “Colon weight to length ratio, SG protein compared with Gly2-GLP2” value ([3]; 50 nmoles/kg i.p. b.i.d.) was “no difference” and the “Colon weight to length ratio” value ([3]; DSS+SG-15, 50 nmoles/kg i.p. b.i.d.) was 3.5 mg/mm.
